B1: SHCBP1 (protein, UniProt Q8NEM2 2-672, looked up)
SHC SH2 domain-binding …: ADGSLTGGGLEAAAMAPERMGWAVEQELASLEKGLFQDEDSCSDCSYRDKPGSSLQSFMPEGKTFFPEIFQTNQLLFYERFRAYQDYILADCKASEVQEFTAEFLEKVLEPSGWRAVWHTNVFKVLVEITDVDFAALKAVVRLAEPYLCDSQVSTFTMECMKELLDLKEHRLPLQELWVVFDDSGVFDQTALAIEHVRFFYQNIWRSWDEEEEDEYDYFVRCVEPRLRLHYDILEDRVPSGLIVDYHNLLSQCEESYRKFLNLRSSLSNCNSDSEQENISMVEGLKLYSEMEQLKQKLKLIENPLLRYVFGYQKNSNIQAKGVRSSGQKITHVVSSTMMAGLLRSLLTDRLCQEPGEEEREIQFHSDPLSAINACFEGDTVIVCPGHYVVHGTFSIADSIELEGYGLPDDIVIEKRGKGDTFVDCTGADIKISGIKFVQHDAVEGILIVHRGKTTLENCVLQCETTGVTVRTSAEFLMKNSDLYGAKGAGIEIYPGSQCTLSDNGIHHCKEGILIKDFLDEHYDIPKISMVNNIIHNNEGYGVVLVKPTIFSDLQENAEDGTEENKALKIQTSGEPDVAERVDLEELIECATGKMELCARTDPSEQVEGNCEIVNELIAASTQKGQIKKKRLSELGITQADDNLMSQEMFVGIVGNQFKWNGKGSFGTFLF
B2: FAM53B (protein, UniProt Q14153 1-422, looked up)
Protein FAM53B: MVMVLSESLSTRGADSIACGTFSRELHTPKKMSQGPTLFSCGIMENDRWRDLDRKCPLQIDQPSTSIWECLPEKDSSLWHREAVTACAVTSLIKDLSISDHNGNPSAPPSKRQCRSLSFSDEMSSCRTSWRPLGSKVWTPVEKRRCYSGGSVQRYSNGFSTMQRSSSFSLPSRANVLSSPCDQAGLHHRFGGQPCQGVPGSAPCGQAGDTWSPDLHPVGGGRLDLQRSLSCSHEQFSFVEYCPPSANSTPASTPELARRSSGLSRSRSQPCVLNDKKVGVKRRRPEEVQEQRPSLDLAKMAQNCQTFSSLSCLSAGTEDCGPQSPFARHVSNTRAWTALLSASGPGGRTPAGTPVPEPLPPSFDDHLACQEDLSCEESDSCALDEDCGRRAEPAAAWRDRGAPGNSLCSLDGELDIEQIEKN
B3: SKIV2L2 (protein, UniProt P42285 2-1042, looked up)
Exosome RNA helicase MTR4: ADAFGDELFSVFEGDSTTAAGTKKDKEKDKGKWKGPPGSADKAGKRFDGKLQSESTNNGKNKRDVDFEGTDEPIFGKKPRIEESITEDLSLADLMPRVKVQSVETVEGCTHEVALPAEEDYLPLKPRVGKAAKEYPFILDAFQREAIQCVDNNQSVLVSAHTSAGKTVCAEYAIALALREKQRVIFTSPIKALSNQKYREMYEEFQDVGLMTGDVTINPTASCLVMTTEILRSMLYRGSEVMREVAWVIFDEIHYMRDSERGVVWEETIILLPDNVHYVFLSATIPNARQFAEWICHLHKQPCHVIYTDYRPTPLQHYIFPAGGDGLHLVVDENGDFREDNFNTAMQVLRDAGDLAKGDQKGRKGGTKGPSNVFKIVKMIMERNFQPVIIFSFSKKDCEAYALQMTKLDFNTDEEKKMVEEVFSNAIDCLSDEDKKLPQVEHVLPLLKRGIGIHHGGLLPILKETIEILFSEGLIKALFATETFAMGINMPARTVLFTNARKFDGKDFRWISSGEYIQMSGRAGRRGMDDRGIVILMVDEKMSPTIGKQLLKGSADPLNSAFHLTYNMVLNLLRVEEINPEYMLEKSFYQFQHYRAIPGVVEKVKNSEEQYNKIVIPNEESVVIYYKIRQQLAKLGKEIEEYIHKPKYCLPFLQPGRLVKVKNEGDDFGWGVVVNFSKKSNVKPNSGELDPLYVVEVLLRCSKESLKNSATEAAKPAKPDEKGEMQVVPVLVHLLSAISSVRLYIPKDLRPVDNRQSVLKSIQEVQKRFPDGIPLLDPIDDMGIQDQGLKKVIQKVEAFEHRMYSHPLHNDPNLETVYTLCEKKAQIAIDIKSAKRELKKARTVLQMDELKCRKRVLRRLGFATSSDVIEMKGRVACEISSADELLLTEMMFNGLFNDLSAEQATALLSCFVFQENSSEMPKLTEQLAGPLRQMQECAKRIAKVSAEAKLEIDEETYLSSFKPHLMDVVYTWATGATFAHICKMTDVFEGSIIRCMRRLEELLRQMCQAAKAIGNTELENKFAEGITKIKRDIVFAASLYL
B4: TSC1 (protein, UniProt Q92574 1-1164, looked up)
Hamartin: MAQQANVGELLAMLDSPMLGVRDDVTAVFKENLNSDRGPMLVNTLVDYYLETSSQPALHILTTLQEPHDKHLLDRINEYVGKAATRLSILSLLGHVIRLQPSWKHKLSQAPLLPSLLKCLKMDTDVVVLTTGVLVLITMLPMIPQSGKQHLLDFFDIFGRLSSWCLKKPGHVAEVYLVHLHASVYALFHRLYGMYPCNFVSFLRSHYSMKENLETFEEVVKPMMEHVRIHPELVTGSKDHELDPRRWKRLETHDVVIECAKISLDPTEASYEDGYSVSHQISARFPHRSADVTTSPYADTQNSYGCATSTPYSTSRLMLLNMPGQLPQTLSSPSTRLITEPPQATLWSPSMVCGMTTPPTSPGNVPPDLSHPYSKVFGTTAGGKGTPLGTPATSPPPAPLCHSDDYVHISLPQATVTPPRKEERMDSARPCLHRQHHLLNDRGSEEPPGSKGSVTLSDLPGFLGDLASEEDSIEKDKEEAAISRELSEITTAEAEPVVPRGGFDSPFYRDSLPGSQRKTHSAASSSQGASVNPEPLHSSLDKLGPDTPKQAFTPIDLPCGSADESPAGDRECQTSLETSIFTPSPCKIPPPTRVGFGSGQPPPYDHLFEVALPKTAHHFVIRKTEELLKKAKGNTEEDGVPSTSPMEVLDRLIQQGADAHSKELNKLPLPSKSVDWTHFGGSPPSDEIRTLRDQLLLLHNQLLYERFKRQQHALRNRRLLRKVIKAAALEEHNAAMKDQLKLQEKDIQMWKVSLQKEQARYNQLQEQRDTMVTKLHSQIRQLQHDREEFYNQSQELQTKLEDCRNMIAELRIELKKANNKVCHTELLLSQVSQKLSNSESVQQQMEFLNRQLLVLGEVNELYLEQLQNKHSDTTKEVEMMKAAYRKELEKNRSHVLQQTQRLDTSQKRILELESHLAKKDHLLLEQKKYLEDVKLQARGQLQAAESRYEAQKRITQVFELEILDLYGRLEKDGLLKKLEEEKAEAAEAAEERLDCCNDGCSDSMVGHNEEASGHNGETKTPRPSSARGSSGSRGGGGSSSSSSELSTPEKPPHQRAGPFSSRWETTMGEASASIPTTVGSLPSSKSFLGMKARELFRNKSESQCDEDGMTSSLSESLKTELGKDLGVEAKIPLNLDGPHPSPPTPDSVGQLHIMDYNETHHEHS
B5: ARHGEF7 (protein, UniProt Q14155 1-803, looked up)
Rho guanine nucleotide …: MNSAEQTVTWLITLGVLESPKKTISDPEGFLQASLKDGVVLCRLLERLLPGTIEKVYPEPRSESECLSNIREFLRGCGASLRLELLFPPSQPPQHLVTTILLSASTFDANDLYQGQNFNKVLSSLVTLNKVTADIGLGSDSVCARPSSHRIKSFDSLGSQSLHTRTSKLFQGQYRSLDMTDNSNNQLVVRAKFNFQQTNEDELSFSKGDVIHVTRVEEGGWWEGTLNGRTGWFPSNYVREVKASEKPVSPKSGTLKSPPKGFDTTAINKSYYNVVLQNILETENEYSKELQTVLSTYLRPLQTSEKLSSANISYLMGNLEEICSFQQMLVQSLEECTKLPEAQQRVGGCFLNLMPQMKTLYLTYCANHPSAVNVLTEHSEELGEFMETKGASSPGILVLTTGLSKPFMRLDKYPTLLKELERHMEDYHTDRQDIQKSMAAFKNLSAQCQEVRKRKELELQILTEAIRNWEGDDIKTLGNVTYMSQVLIQCAGSEEKNERYLLLFPNVLLMLSASPRMSGFIYQGKLPTTGMTITKLEDSENHRNAFEISGSMIERILVSCNNQQDLQEWVEHLQKQTKVTSVGNPTIKPHSVPSHTLPSHPVTPSSKHADSKPAPLTPAYHTLPHPSHHGTPHTTINWGPLEPPKTPKPWSLSCLRPAPPLRPSAALCYKEDLSKSPKTMKKLLPKRKPERKPSDEEFASRKSTAALEEDAQILKVIEAYCTSAKTRQTLNSTWQGTDLMHNHVLADDDQPSLDSLGRRSSLSRLEPSDLSEDSDYDSIWTAHSYRMGSTSRKSCCSYISHQN
B6: ZCCHC8 (protein, UniProt Q6NZY4 2-707, looked up)
Zinc finger CCHC …: AAEVYFGDLELFEPFDHPEESIPKPVHTRFKDDDGDEEDENGVGDAELRERLRQCEETIEQLRAENQELKRKLNILTRPSGILVNDTKLDGPILQILFMNNAISKQYHQEIEEFVSNLVKRFEEQQKNDVEKTSFNLLPQPSSIVLEEDHKVEESCAIKNNKEAFSVVGSVLYFTNFCLDKLGQPLLNENPQLSEGWEIPKYHQVFSHIVSLEGQEIQVKAKRPKPHCFNCGSEEHQMKDCPMPRNAARISEKRKEYMDACGEANNQNFQQRYHAEEVEERFGRFKPGVISEELQDALGVTDKSLPPFIYRMRQLGYPPGWLKEAELENSGLALYDGKDGTDGETEVGEIQQNKSVTYDLSKLVNYPGFNISTPRGIPDEWRIFGSIPMQACQQKDVFANYLTSNFQAPGVKSGNKRSSSHSSPGSPKKQKNESNSAGSPADMELDSDMEVPHGSQSSESFQFQPPLPPDTPPLPRGTPPPVFTPPLPKGTPPLTPSDSPQTRTASGAVDEDALTLEELEEQQRRIWAALEQAESVNSDSDVPVDTPLTGNSVASSPCPNELDLPVPEGKTSEKQTLDEPEVPEIFTKKSEAGHASSPDSEVTSLCQKEKAELAPVNTEGALLDNGSVVPNCDISNGGSQKLFPADTSPSTATKIHSPIPDMSKFATGITPFEFENMAESTGMYLRIRSLLKNSPRNQQKNKKASE
B7: PDLIM5 (protein, UniProt Q96HC4 2-596, looked up)
PDZ and LIM domain protein 5: SNYSVSLVGPAPWGFRLQGGKDFNMPLTISSLKDGGKAAQANVRIGDVVLSIDGINAQGMTHLEAQNKIKGCTGSLNMTLQRASAAPKPEPVPVQKGEPKEVVKPVPITSPAVSKVTSTNNMAYNKAPRPFGSVSSPKVTSIPSPSSAFTPAHATTSSHASPSPVAAVTPPLFAASGLHANANLSADQSPSALSAGKTAVNVPRQPTVTSVCSETSQELAEGQRRGSQGDSKQQNGPPRKHIVERYTEFYHVPTHSDASKKRLIEDTEDWRPRTGTTQSRSFRILAQITGTEHLKESEADNTKKANNSQEPSPQLASSVASTRSMPESLDSPTSGRPGVTSLTAAAAFKPVGSTGVIKSPSWQRPNQGVPSTGRISNSATYSGSVAPANSALGQTQPSDQDTLVQRAEHIPAGKRTPMCAHCNQVIRGPFLVALGKSWHPEEFNCAHCKNTMAYIGFVEEKGALYCELCYEKFFAPECGRCQRKILGEVISALKQTWHVSCFVCVACGKPIRNNVFHLEDGEPYCETDYYALFGTICHGCEFPIEAGDMFLEALGYTWHDTCFVCSVCCESLEGQTFFSKKDKPLCKKHAHSVNF

Key:
[1] = tested on: GFP-14-3-3β and its binding proteins; experiment: GFP-14-3-3β co-IP with LC-MS/MS label-free quantification, untreated versus PP1c-treated; set-up: species or system human; conditions: pairwise comparison PP1 vs untreated, student's t-test; 3 replicates each; LC-MS/MS label-free quantification
GFP-14-3-3β = GFP-14-3-3β co-IP with LC-MS/MS, untreated GFP-14-3-3β versus GFP control (14-3-3 interactome); assay type: binding, human; conditions: pairwise comparison untreated GFP-14-3-3β vs GFP, student's t-test; 3 replicates each; LC-MS/MS label-free quantification

Row | Molecule | Difference (log2), PP1 vs untreated [1] | Difference (log2), untreated vs GFP (GFP-14-3-3β)
1 | B1 | -3.298 log2 | 4.099 log2
2 | B2 | -3.06 log2 | 2.4159 log2
3 | B3 | -3.184 log2 | 4.62 log2
4 | B4 | -3.2926 log2 | 2.521 log2
5 | B5 | -3.042 log2 | 2.997 log2
6 | B6 | -3.239 log2 | 4.409 log2
7 | B7 | -3.258 log2 | 1.189 log2
